Measured values reported in patent US20020155577A1 (AVENTIS PHARMA S A, published 2002).

Molecular target: T1, PAP1 (Parkin Associated Protein 1) fragment encoded by the insert of library plasmid pGAD-Ly111b, fused to … (human, UniProt Q4VX76 267-610)
T1 construct: Prey of the yeast two-hybrid test; It is a partial PAP1 clone from a human peripheral lymphocyte cDNA library; Any linker between GAL4 and the insert is not described; also called fragment of PAP1; plasmid isolated during the screening of the two-hybrid library
T1 sequence: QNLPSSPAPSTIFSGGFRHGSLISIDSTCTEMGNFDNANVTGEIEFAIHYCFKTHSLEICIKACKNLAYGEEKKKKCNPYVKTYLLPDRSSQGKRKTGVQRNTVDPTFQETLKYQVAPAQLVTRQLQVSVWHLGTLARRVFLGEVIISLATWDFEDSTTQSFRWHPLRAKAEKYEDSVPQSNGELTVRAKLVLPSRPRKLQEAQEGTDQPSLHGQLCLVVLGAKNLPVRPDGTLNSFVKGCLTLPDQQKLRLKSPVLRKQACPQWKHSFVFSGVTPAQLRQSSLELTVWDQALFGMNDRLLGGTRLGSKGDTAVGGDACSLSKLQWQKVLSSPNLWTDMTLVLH
Test: yeast two-hybrid in strain L40, beta-Gal activity assay
Method: A sheet of nitrocellulose is preplaced on the Petri dish containing the yeast clones, which are separated from each other. This sheet is then immersed in liquid nitrogen for 30 seconds, in order to rupture the yeasts and thus to release the β-galactosidase activity. After thawing, the sheet of nitrocellulose is placed, colonies facing upwards, in another Petri dish containing a Whatman paper which has been presoaked in 1.5 ml of PBS solution (60 mM Na₂HPO₄, 40 mM NaH₂PO₄, 10 mM KCl, 1 mM MgSO₄, pH 7) containing 15 μl of X-Gal (5-bromo-4-chloro-3-indoyl-β-D-galactoside) at 40 mg/ml of N,N-dimethylformamide. The dish is then placed in an incubator at 37° C. The assay is termed positive when the colonies on the membrane turn blue after 12 hours.
To determine the specificity of interaction between the fragment corresponding to the PAP1 protein and the central region of parkin, a two-hybrid test for specific interaction with other nonrelevant proteins was carried out. To carry out this test, we transformed strain L40 with the control plasmids plex9-cAPP or pLex9-HaRasVal12, in place of the plasmid pLex9-parkin (135-290), which respectively encode the cytoplasmic domain of the APP or the HaRasVal12 protein, which are fused to the LexA DNA binding domain, and with the plasmid isolated during the screening of the two-hybrid library. […]

B1: central region of parkin (amino acids 135-290) fused to the LexA bacterial repressor, from vector pLex9-parkin (135-290) (other)
chain: GSPAGRSIYNSFYVYCKGPCQRVQPGKLRVQCSTCRQATLTLTQGPSCWDDVLIPNRMSGECQSPHCPGTSAEFFFKCGAHPTSDKETSVALHLIATNSRNITCITCTDVRSPVLVFQCNSRHVICLDCFHLYCVTRLNDRQFVHDPQLGYSLPCV
notes: also called central portion of parkin; not shown: LexA bacterial repressor as encoded by vector pLex9 (pBTM116)
B1: binds.
